Test [1] addresses Factor VIIIa (recombinant FVIII, Kogenate FS, activated with alpha-thrombin) (UniProt P00451). Put plainly: apparent KD (KD-app): FX activation rate (Spectrafluor FXa fluorescence) vs FVIIIa titration, PC/PS vesicles, Ca2+; indirect functional assay.
The target is the same in test [2]. Description: functional KD-app: FVIIIa titrated (0-400 nM) on 2 pM FIXa, PC/PS vesicles, 500 nM FX, fluorogenic FXa substrate.
Test [3] concerns the target plasma purified human AT-III (antithrombin III), in complex with low molecular weight heparin (human) (UniProt P01008). Put plainly: K0.5: AT-III conc. for 50% inhibition of FIXa cleavage of Pefafluor FIXa; AT-III/LMWH, 1 uM LMWH, 1 min.

Factor VIIIa (recombinant FVIII, Kogenate FS, activated with alpha-thrombin), sequence (P00451 20-391, chain 1 of 3): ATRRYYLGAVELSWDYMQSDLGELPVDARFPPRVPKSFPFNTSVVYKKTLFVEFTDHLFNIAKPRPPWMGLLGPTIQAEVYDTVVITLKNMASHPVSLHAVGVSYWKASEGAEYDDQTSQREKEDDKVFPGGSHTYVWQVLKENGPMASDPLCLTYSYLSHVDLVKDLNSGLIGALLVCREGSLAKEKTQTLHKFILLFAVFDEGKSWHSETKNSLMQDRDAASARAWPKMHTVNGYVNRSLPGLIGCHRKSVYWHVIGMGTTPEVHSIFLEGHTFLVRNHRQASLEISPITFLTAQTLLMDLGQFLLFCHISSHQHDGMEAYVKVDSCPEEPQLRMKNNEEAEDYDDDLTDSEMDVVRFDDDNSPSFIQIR
Factor VIIIa (recombinant FVIII, Kogenate FS, activated with alpha-thrombin), sequence (P00451 392-759, chain 2 of 3): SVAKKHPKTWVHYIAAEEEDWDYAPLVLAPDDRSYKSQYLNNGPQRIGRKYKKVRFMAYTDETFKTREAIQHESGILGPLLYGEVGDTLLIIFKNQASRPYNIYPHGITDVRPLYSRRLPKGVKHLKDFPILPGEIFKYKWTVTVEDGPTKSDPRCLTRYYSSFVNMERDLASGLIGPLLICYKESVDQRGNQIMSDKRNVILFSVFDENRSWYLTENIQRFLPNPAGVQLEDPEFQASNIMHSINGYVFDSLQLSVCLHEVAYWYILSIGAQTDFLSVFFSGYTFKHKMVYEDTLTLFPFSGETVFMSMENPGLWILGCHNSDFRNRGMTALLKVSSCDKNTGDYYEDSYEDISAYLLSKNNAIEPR
Factor VIIIa (recombinant FVIII, Kogenate FS, activated with alpha-thrombin), sequence (P00451 1709-2351, chain 3 of 3): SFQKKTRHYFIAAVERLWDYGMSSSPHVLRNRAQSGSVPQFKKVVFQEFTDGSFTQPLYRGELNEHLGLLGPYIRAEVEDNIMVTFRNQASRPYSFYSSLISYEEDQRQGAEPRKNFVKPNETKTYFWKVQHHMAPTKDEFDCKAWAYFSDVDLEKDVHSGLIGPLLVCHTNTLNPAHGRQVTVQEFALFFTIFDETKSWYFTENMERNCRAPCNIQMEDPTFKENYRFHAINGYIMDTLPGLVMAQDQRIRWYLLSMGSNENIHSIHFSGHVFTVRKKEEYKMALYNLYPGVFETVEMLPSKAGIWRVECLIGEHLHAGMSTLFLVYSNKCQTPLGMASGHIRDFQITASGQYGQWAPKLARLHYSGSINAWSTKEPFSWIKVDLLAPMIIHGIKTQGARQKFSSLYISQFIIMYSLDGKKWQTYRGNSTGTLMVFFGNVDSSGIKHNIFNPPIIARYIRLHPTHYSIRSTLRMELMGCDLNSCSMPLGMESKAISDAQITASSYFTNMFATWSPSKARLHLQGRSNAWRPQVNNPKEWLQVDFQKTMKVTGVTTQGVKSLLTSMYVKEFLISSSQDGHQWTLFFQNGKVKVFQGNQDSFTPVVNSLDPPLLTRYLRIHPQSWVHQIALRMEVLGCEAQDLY
plasma purified human AT-III (antithrombin III), in complex with low molecular weight heparin (human), sequence (P01008 33-464, one chain of several): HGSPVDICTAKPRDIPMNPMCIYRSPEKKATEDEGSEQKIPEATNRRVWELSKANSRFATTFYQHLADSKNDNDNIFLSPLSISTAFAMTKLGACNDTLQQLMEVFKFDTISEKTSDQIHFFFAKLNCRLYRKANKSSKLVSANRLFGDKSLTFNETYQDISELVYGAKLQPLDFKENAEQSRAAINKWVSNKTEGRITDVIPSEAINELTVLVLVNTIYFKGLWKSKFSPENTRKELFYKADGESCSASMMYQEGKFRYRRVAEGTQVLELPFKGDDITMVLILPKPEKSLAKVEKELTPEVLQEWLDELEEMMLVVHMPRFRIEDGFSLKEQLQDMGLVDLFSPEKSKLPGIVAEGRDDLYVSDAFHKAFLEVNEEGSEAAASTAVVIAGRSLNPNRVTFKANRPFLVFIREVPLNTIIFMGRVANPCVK

For “BeneFIX Coagulation FIX (T148A), activated (FIXa) (from UniProt P00740 47-191; P00740 227-461) (enzyme)”, the Kd in test [1] was determined as 90.2 nM.

Consider “Catalyst Biosciences WT FIXa (recombinant wild-type FIXa) (from UniProt P00740 47-191; P00740 227-461) (enzyme)”, for which the Kd in test [1] came out at 95.5 nM.

Take “FIXa variant A204M (from UniProt P00740 47-191; P00740 227-461) (enzyme)”: the Kd in test [1] was 60.6 nM.

In the case of “FIXa variant A262S (from UniProt P00740 47-191; P00740 227-461) (enzyme)”, in test [1], the Kd amounted to 94.1 nM.

“FIXa variant D104N/K106S/I251S (from UniProt P00740 47-191; P00740 227-461) (enzyme)”: in test [1], the Kd was 306 nM.

Consider “FIXa variant D104N/K106S/R318Y/R338E/E410N (from UniProt P00740 47-191; P00740 227-461) (enzyme)”, for which the Kd in test [1] turned out to be 12.4 nM.

In the case of “FIXa variant D104N/K106S/Y155F/R318Y/R338E/R403E/E410N (from UniProt P00740 47-191; P00740 227-461) (enzyme)”, in test [1], the Kd came to 61.6 nM.

In the case of “FIXa variant D203Y (from UniProt P00740 47-191; P00740 227-461) (enzyme)”, the Kd in test [1] worked out at 77.4 nM.

For the substance “FIXa variant E239N (from UniProt P00740 47-191; P00740 227-461) (enzyme)”, the Kd in test [1] came to 77.3 nM.

Take “FIXa variant E410N (from UniProt P00740 47-191; P00740 227-461) (enzyme)”: the Kd in test [1] was found to be 74.2 nM.

“FIXa variant E410S (from UniProt P00740 47-191; P00740 227-461) (enzyme)”: in test [1], the Kd turned out to be 99.6 nM.

For “FIXa variant H257E (from UniProt P00740 47-191; P00740 227-461) (enzyme)”, in test [1], the Kd was 81.3 nM.

As for “FIXa variant K293A (from UniProt P00740 47-191; P00740 227-461) (enzyme)”, in test [1], the Kd turned out to be 86.6 nM.

Take “FIXa variant K316N (from UniProt P00740 47-191; P00740 227-461) (enzyme)”: the Kd in test [1] turned out to be 66.4 nM.

In the case of “FIXa variant K400A (from UniProt P00740 47-191; P00740 227-461) (enzyme)”, the Kd in test [1] amounted to 98.9 nM.

As to “FIXa variant K400A/R403A (from UniProt P00740 47-191; P00740 227-461) (enzyme)”, in test [1], the Kd worked out at 130 nM.

With “FIXa variant K400E/R403E (from UniProt P00740 47-191; P00740 227-461) (enzyme)”, the Kd in test [1] was 298 nM.

As for “FIXa variant N346D (from UniProt P00740 47-191; P00740 227-461) (enzyme)”, in test [1], the Kd came to 126 nM.

Regarding “FIXa variant R312A (from UniProt P00740 47-191; P00740 227-461) (enzyme)”, in test [1], the Kd came out at 52.9 nM.

For “FIXa variant R312L (from UniProt P00740 47-191; P00740 227-461) (enzyme)”, in test [1], the Kd was 68.9 nM.

Regarding “FIXa variant R312Q (from UniProt P00740 47-191; P00740 227-461) (enzyme)”, the Kd in test [1] was 45.2 nM.

For the substance “FIXa variant R312Y (from UniProt P00740 47-191; P00740 227-461) (enzyme)”, in test [1], the Kd was 85.2 nM.

Consider “FIXa variant R318E (from UniProt P00740 47-191; P00740 227-461) (enzyme)”, for which, in test [1], the Kd was 67 nM.

Consider “FIXa variant R318Y (from UniProt P00740 47-191; P00740 227-461) (enzyme)”, for which the Kd in test [1] is 192 nM.

On to “FIXa variant R318Y/R338E/E410N (from UniProt P00740 47-191; P00740 227-461) (enzyme)”, for which, in test [1], the Kd was determined as 7.7 nM.

As for “FIXa variant R318Y/R338E/R403E (from UniProt P00740 47-191; P00740 227-461) (enzyme)”, the Kd in test [1] came out at 340 nM.

Consider “FIXa variant R318Y/R338E/R403E/E410N (from UniProt P00740 47-191; P00740 227-461) (enzyme)”, for which the Kd in test [1] is 47 nM.

Consider “FIXa variant R338E (from UniProt P00740 47-191; P00740 227-461) (enzyme)”, for which the Kd in test [1] is 43 nM.

Turning to “FIXa variant R338E/E410N (from UniProt P00740 47-191; P00740 227-461) (enzyme)”, the Kd in test [1] came to 4.1 nM.

For “FIXa variant R338E/R403E (from UniProt P00740 47-191; P00740 227-461) (enzyme)”, in test [1], the Kd was 183 nM.

In the case of “FIXa variant R338E/R403E/E410N (from UniProt P00740 47-191; P00740 227-461) (enzyme)”, the Kd in test [1] is 54.9 nM.

For “FIXa variant R403E (from UniProt P00740 47-191; P00740 227-461) (enzyme)”, the Kd in test [1] was 654 nM.

In the case of “FIXa variant R403E/E410N (from UniProt P00740 47-191; P00740 227-461) (enzyme)”, the Kd in test [1] was 910 nM.

As for “FIXa variant S319N/L321S (from UniProt P00740 47-191; P00740 227-461) (enzyme)”, the Kd in test [1] was determined as 52.4 nM.

In the case of “FIXa variant T148A (from UniProt P00740 47-191; P00740 227-461) (enzyme)”, the Kd in test [1] worked out at 79.7 nM.

In the case of “FIXa variant T241N/H243S (from UniProt P00740 47-191; P00740 227-461) (enzyme)”, the Kd in test [1] was determined as 75.5 nM.

Turning to “FIXa variant V202Y (from UniProt P00740 47-191; P00740 227-461) (enzyme)”, the Kd in test [1] came out at 61.5 nM.

“FIXa-K228N/K247N/N249S/R318Y/R338E/T343R/E410N (from UniProt P00740 47-191; P00740 227-461) (enzyme)”: the Kd in test [2] turned out to be 7.8 nM.

Consider “FIXa-K228N/K247N/N249S/R318Y/R338E/T343R/R403E/E410N (from UniProt P00740 47-191; P00740 227-461) (enzyme)”, for which, in test [2], the Kd was 29.1 nM.

“FIXa-K228N/R318Y/R338E/T343R/R403E/E410N (from UniProt P00740 47-191; P00740 227-461) (enzyme)”: the Kd in test [2] came out at 17.5 nM.

Consider “FIXa-K247N/N249S/R318Y/R338E/T343R (from UniProt P00740 47-191; P00740 227-461) (enzyme)”, for which the Kd in test [2] came out at 14.7 nM.

On to “FIXa-R318Y/R338E/T343R (from UniProt P00740 47-191; P00740 227-461) (enzyme)”, for which the Kd in test [2] was found to be 9.8 nM.

Consider “FIXa-R318Y/R338E/T343R/E410N (from UniProt P00740 47-191; P00740 227-461) (enzyme)”, for which the Kd in test [2] is 6.1 nM.

“FIXa-R318Y/R338E/T343R/R403E/E410S (from UniProt P00740 47-191; P00740 227-461) (enzyme)”: the Kd in test [2] is 23.2 nM.

Regarding “FIXa-R318Y/T343R/R403E/E410N (from UniProt P00740 47-191; P00740 227-461) (enzyme)”, in test [2], the Kd turned out to be 84.1 nM.

Consider “FIXa-R338E/T343R/E410N (from UniProt P00740 47-191; P00740 227-461) (enzyme)”, for which the Kd in test [2] was 7.5 nM.

For the substance “FIXa-R338E/T343R/R403E (from UniProt P00740 47-191; P00740 227-461) (enzyme)”, the Kd in test [2] came to 55 nM.

For the substance “FIXa-R338E/T343R/R403E/E410N (from UniProt P00740 47-191; P00740 227-461) (enzyme)”, the Kd in test [2] turned out to be 29.4 nM.

Regarding “FIXa-Y155F/K228N/K247N/N249S/R318Y/R338E/T343R/R403E/E410N (from UniProt P00740 47-191; P00740 227-461) (enzyme)”, the Kd in test [2] worked out at 37 nM.

Regarding “FIXa-Y155F/K247N/N249S/R318Y/R338E/T343R/E410N (from UniProt P00740 47-191; P00740 227-461) (enzyme)”, in test [2], the Kd came out at 13.9 nM.

On to “FIXa-Y155F/K247N/N249S/R318Y/R338E/T343R/R403E/E410N (from UniProt P00740 47-191; P00740 227-461) (enzyme)”, for which the Kd in test [2] worked out at 15.3 nM.

For the substance “FIXa-Y155F/K247N/N249S/R338E/E410N (from UniProt P00740 47-191; P00740 227-461) (enzyme)”, in test [2], the Kd stood at 24.9 nM.

Consider “FIXa-Y155F/K247N/N249S/R338E/T343R (from UniProt P00740 47-191; P00740 227-461) (enzyme)”, for which the Kd in test [2] came to 15.4 nM.

As for “FIXa-Y155F/R318Y/R338E/T343R (from UniProt P00740 47-191; P00740 227-461) (enzyme)”, the Kd in test [2] came out at 8.4 nM.

In the case of “FIXa-Y155F/R318Y/R338E/T343R/E410N (from UniProt P00740 47-191; P00740 227-461) (enzyme)”, in test [2], the Kd was found to be 7.4 nM.

Consider “FIXa-Y155F/R318Y/T343R/E410N (from UniProt P00740 47-191; P00740 227-461) (enzyme)”, for which the Kd in test [2] was determined as 38 nM.

In the case of “FIXa-Y155F/R338E/T343R/E410N (from UniProt P00740 47-191; P00740 227-461) (enzyme)”, the Kd in test [2] came to 8.5 nM.

As to “FIXa-Y155F/R338E/T343R/R403E (from UniProt P00740 47-191; P00740 227-461) (enzyme)”, in test [2], the Kd stood at 72.1 nM.

Turning to “FIXa-Y155F/R338E/T343R/R403E/E410N (from UniProt P00740 47-191; P00740 227-461) (enzyme)”, the Kd in test [2] turned out to be 28.5 nM.

Substance “Plasma Purified FIXa (from UniProt P00740 47-191; P00740 227-461) (enzyme)” returned an IC50 in test [3] of 20.2 nM.

One may read the IC50 as the concentration needed to halve the response being measured.
